Blank lines part the entries; values can stand above or below the molecule they belong to.
Columns and labels:
Assay in all cases: ITC
PP1α_(7–330) (human) = PP1α_(7–330) (human) (UniProt P62136)
PP1γ_(7–323) = PP1γ_(7–323) (human, UniProt P36873 7-323)
PP1γ_(7–300) = PP1γ_(7–300) (human, UniProt P36873 7-300)
PP1γ_(7–300), sequence (P36873 7-300): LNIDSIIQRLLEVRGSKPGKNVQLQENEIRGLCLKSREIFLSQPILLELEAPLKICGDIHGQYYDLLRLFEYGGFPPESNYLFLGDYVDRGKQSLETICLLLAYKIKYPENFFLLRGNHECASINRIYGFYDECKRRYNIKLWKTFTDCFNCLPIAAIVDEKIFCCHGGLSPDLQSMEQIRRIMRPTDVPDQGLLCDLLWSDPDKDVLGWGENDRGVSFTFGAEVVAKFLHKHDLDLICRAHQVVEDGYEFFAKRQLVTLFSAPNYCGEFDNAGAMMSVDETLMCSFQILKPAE

PP1γ_(7–323), sequence (P36873 7-323): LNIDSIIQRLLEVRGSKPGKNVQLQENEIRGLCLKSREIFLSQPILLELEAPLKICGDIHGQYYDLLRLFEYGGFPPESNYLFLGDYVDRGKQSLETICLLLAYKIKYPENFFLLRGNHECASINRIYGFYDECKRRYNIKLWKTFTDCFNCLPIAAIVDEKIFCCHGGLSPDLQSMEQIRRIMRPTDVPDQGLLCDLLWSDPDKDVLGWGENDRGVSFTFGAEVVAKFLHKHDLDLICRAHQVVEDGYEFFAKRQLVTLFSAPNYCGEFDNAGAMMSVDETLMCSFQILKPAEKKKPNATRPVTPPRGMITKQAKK

Kd (PP1α_(7–330) (human)): 89 nM
dH (PP1α_(7–330) (human)): -13.7 kcal/mol
Molecule: KNL1_(23–80) (from UniProt Q8NG31 23-80) (domain or fragment)

Kd (PP1α_(7–330) (human)): 154 nM
dH (PP1α_(7–330) (human)): -20.1 kcal/mol
Molecule: KNL1_(1–80)S60A (from UniProt Q8NG31 1-80) (domain or fragment)

Kd (PP1α_(7–330) (human)): 236 nM
dH (PP1α_(7–330) (human)): -30.7 kcal/mol
Molecule: KNL1_(1–80)S60D (from UniProt Q8NG31 1-80) (domain or fragment)

Kd (PP1α_(7–330) (human)): 14.7 nM
dH (PP1α_(7–330) (human)): -12.4 kcal/mol
Molecule: KNL1_(1–80)S56D (from UniProt Q8NG31 1-80) (domain or fragment)

Kd (PP1α_(7–330) (human)): 93.5 nM
dH (PP1α_(7–330) (human)): -21.5 kcal/mol
Molecule: KNL1_(1–80)S24AS25A (from UniProt Q8NG31 1-80) (domain or fragment)

Kd (PP1α_(7–330) (human)): 228 nM
dH (PP1α_(7–330) (human)): -21.5 kcal/mol
Molecule: KNL1_(1–80)SILK/AAAA (SILK_(dead)) (from UniProt Q8NG31 1-80) (domain or fragment)

Kd (PP1α_(7–330) (human)): 267 nM
dH (PP1α_(7–330) (human)): -10.9 kcal/mol
Molecule: KNL1_(1–80)S24DS25D (from UniProt Q8NG31 1-80) (domain or fragment)

Kd (PP1α_(7–330) (human)): 46.4 nM
dH (PP1α_(7–330) (human)): -22.6 kcal/mol
Molecule: KNL1_(1–80) (from UniProt Q8NG31 1-80) (domain or fragment)

Kd (PP1γ_(7–323)): 38.3 nM
dH (PP1γ_(7–323)): -8.6 kcal/mol
B1: KNL1_(1–80) (domain or fragment, human, UniProt Q8NG31 1-80, looked up)
chain: MDGVSSEANEENDNIERPVRRRHSSILKPPRSPLQDLRGGNERVQESNALRNKKNSRRVSFADTIKVFQTESHMKIVRKS

Kd (PP1γ_(7–323)): 52.4 nM
dH (PP1γ_(7–323)): -10 kcal/mol
Kd (PP1γ_(7–300)): 82 nM
dH (PP1γ_(7–300)): -28.3 kcal/mol
B2: KNL1_(23–80) (domain or fragment, human, UniProt Q8NG31 23-80, looked up)
chain: HSSILKPPRSPLQDLRGGNERVQESNALRNKKNSRRVSFADTIKVFQTESHMKIVRKS

Kd (PP1γ_(7–323)): 55.2 nM
dH (PP1γ_(7–323)): -9.3 kcal/mol
B3: KNL1_(1–150) (domain or fragment, human, UniProt Q8NG31 1-150, looked up)
chain: MDGVSSEANEENDNIERPVRRRHSSILKPPRSPLQDLRGGNERVQESNALRNKKNSRRVSFADTIKVFQTESHMKIVRKSEMEGCSAMVPSQLQLLPPGFKRFSCLSLPETETGENLLLIQNKKLEDNYCEITGMNTLLSAPIHTQMQQK
